US20250197503A1 (SHANGHAI INSTITUTE OF MATERIA MEDICA CHINESE ACADEMY OF …, published 2025)
Positions count from the first letter of the chain named.

B1: h_Nb2 (expressed from pFUSE-hIgG1-Fc) (Fc fusion)
chain: DVQLQESGGGLVQPGGSLRLSCAASGFTFGDRWMYWLRQAPGKGLEWVSSINPAGRSTYYADSVKGRFTISRDNAKNTLYLQMNSLKSEDTAVYYCTKDPGGYQKGQGTQVTVSS
notes: Candidates were cloned into pFUSE-mIgG2b-Fc and pFUSE-hIgG1-Fc; not shown: human IgG1 Fc as encoded by the pFUSE-hIgG1-Fc vector
B2: h_Nb6 (expressed from pFUSE-hIgG1-Fc) (Fc fusion)
chain: DVQLQESGGGLAQPGGSLRLSCAASGFTFSSYAMSWARQAPGKGLEWVAGIYRGGSDTYYADSVKGRFTISRDNTKNTLYLQMNSLKPEDTALYYCIQGWGLGYANYDYWGQGTQVTVSS
notes: not shown: human IgG1 Fc as encoded by the pFUSE-hIgG1-Fc vector
B3: h_Nb1 (expressed from pFUSE-hIgG1-Fc) (Fc fusion)
chain: DVQLQESGGGLVQPGGSLRLSCAASGFTFSSYAMSWVRQAPGKGLEWVSDINSGGDNTDYADSVKGRFTISRDNAKNTLYLQMNSLKPEDTAVYYCARGPKLCFSSWGQGTQVTVSS
notes: as for B1
B4: h_Nb9 (expressed from pFUSE-hIgG1-Fc) (Fc fusion)
chain: DVQLQESGGGLVQPGGSLRLSCASSGSIFGLGVKGWYRQPPGNQREMVAQIISGGRISYADSVKGRFTISRDNAKNTVYLQMNSLKPEDTAVYYCNAWGPGQRNYWGRGTQVTVSS
notes: as for B2
B5: h_Nb12 (expressed from pFUSE-hIgG1-Fc) (Fc fusion)
chain: DVQLQESGGGLVQAGGSLRLSCAASGRTFSSRAMGWFRQAPGKEREFVAAISGSGRNTYYADSVKGRFTISRDNAKNSVNLQMNSLKPEDTAVYYCNAAGGGITIATMTQRTQYDYWGQGTQVTVSS
notes: as for B2
B6: h_Nb5 (expressed from pFUSE-hIgG1-Fc) (Fc fusion)
chain: DVQLQESGGGAVQSGESLRLSCAASGRDLMFYDVAWFRQAPGKEREGVSYIRSSGTLTKYADSVKGRFTISRDNDKNTVSLQMNSLNPEDTAKYYCAARLQSATSHSDLREDEFNSWGQGTQVTVSS
notes: as for B2
B7: h_Nb13 (expressed from pFUSE-hIgG1-Fc) (Fc fusion)
chain: DVQLQESGGGLVQPGGSLRLSCAASGSIFSINAMGWYRQAPGKSRELVAAITSGGSTNYADSVKGRFTISRDTAKNTVYLLMNSLEPEDTAVYYCNVERRRPPHYLSEYDFDWGQGTQVTVSS
notes: as for B2
B8: h_Nb26 (expressed from pFUSE-hIgG1-Fc) (Fc fusion)
chain: B7 chain with S25P, S30R, S44Q, K64Q, T73N, L81Q, E86K, L106Y, E108D
notes: as for B2
B9: h_Nb4 (expressed from pFUSE-hIgG1-Fc) (Fc fusion)
chain: DVQLQESGGGLVQAGGSLRLSCAAPSRMFSGYTMGWYRQAPGKQRELVAQIANGGFTDYIDSVKGRFSISRDTVLNMMYLQMNSLKPEDTAVYYCNLVLVNGIPTRNWGQGTQVTVSS
notes: as for B2
B10: h_Nb30 VHH (VHH)
VHH: DVQLQESGGGLVQPGESLRVSCAASGFTFSNYYMTWVRQAPGKGLEWVSFLNPSSSERFYADSVKGRFTISRDNAKNTLDLLMHSLKPEDTALYYCARHLKYNWAPNYDYWGQGTQVTVSS
B11: h_Nb2 VHH (VHH)
VHH: B1 chain
B12: h_Nb9 VHH (VHH)
VHH: B4 chain
B13: h_Nb12 VHH (VHH)
VHH: B5 chain
B14: h_Nb5 VHH (VHH)
VHH: B6 chain
B15: h_Nb4 VHH (VHH)
VHH: B9 chain

The binders below were run against T1, human PD-L1 on stably transfected cell line HEK293T/hPD-L1 (human, UniProt Q9NZQ7 19-290) (assay: flow cytometry on HEK293T/hPD-L1 cells, 10 ug/ml nanobody, anti-human IgG Fc (FITC)).
T1 construct: whole, on cells
T1 sequence (Q9NZQ7 19-290): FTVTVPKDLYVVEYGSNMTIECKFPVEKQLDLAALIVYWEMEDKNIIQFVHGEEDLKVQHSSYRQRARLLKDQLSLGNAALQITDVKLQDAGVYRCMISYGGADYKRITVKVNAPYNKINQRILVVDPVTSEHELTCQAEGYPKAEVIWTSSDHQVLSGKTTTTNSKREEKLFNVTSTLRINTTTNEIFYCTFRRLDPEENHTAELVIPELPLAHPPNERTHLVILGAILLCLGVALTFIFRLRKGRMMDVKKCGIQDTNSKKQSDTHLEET
Protocol: The stably transfected cell line HEK293T/hPD-L1 was digested and centrifuged, and the supernatant was removed. The cells were washed once with PBS and the cell density was adjusted to 2.5×10⁶ cells/mL. 100 μL of cell suspension was added to each cell sample, i.e., 2.5×10⁵ cells/sample. Different anti-human PD-L1 candidate nanobodies (at a concentration of 10 μg/ml) were added into the samples. The samples were incubated in a 4° C. refrigerator for 20 min and then centrifuged to remove the supernatant, and washed once with PBS. The diluted antibody anti-human IgG Fc (FITC) was used as a secondary antibody to resuspend the above cells. The abtained samples were incubated in a 4° C. refrigerator for 20 min and centrifuged to remove the supernatant. The cells were washed twice with PBS, transferred to a flow tube; and detected on a flow cytometer to obtain the binding activity of the candidate nanobody with human PD-L1, as shown in FIG. 1.

| binding result | Binder |
| --- | --- |
| binds | B1 |
| binds | B2 |
| binds | B3 |
| binds | B4 |
| binds | B5 |
| binds | B6 |
| binds | B7 |
| binds | B8 |
| binds | B9 |

These binders were tested against T2, human PD-L1 protein (ELISA antigen) (human, UniProt Q9NZQ7 19-238, limits assumed) (assay: ELISA; PD-L1 protein on NeutrAvidin plate, crude nanobody, anti-HA detection; positive = absorbance more than three times control).
T2 construct: also called PD-L1-biotin protein
T2 sequence (Q9NZQ7 19-238 limits assumed): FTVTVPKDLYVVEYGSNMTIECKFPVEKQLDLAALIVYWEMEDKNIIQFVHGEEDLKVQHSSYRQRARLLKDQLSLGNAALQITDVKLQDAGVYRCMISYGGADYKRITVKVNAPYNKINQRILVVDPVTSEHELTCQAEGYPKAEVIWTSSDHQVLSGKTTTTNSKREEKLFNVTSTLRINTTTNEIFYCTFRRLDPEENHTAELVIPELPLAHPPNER
Protocol: After several rounds of panning, TG1 competent cells in the logarithmic phase of growth were infected with the eluted phages, gradiently diluted and spread on the plate for overnight culture. 96 clones were picked and inoculated into a 96-well round-bottom plate with 100 μL of culture medium per well and left to be incubated overnight as the master plate. Then 10 μL of overnight cultured bacterial solution was pipetted into a 96-well deep-bottom plate with 1 mL of culture medium per well to induce nanobody expression which was then subjected to crude purification. The 96-well ELISA plate was coated with 5 μg/mL NeutrAvidin solution at 4° C., 700 rpm, overnight. The next day, 2% skim milk powder was added to block the plate at room temperature and washed 3 times with a solution containing bovine serum albumin BSA. 100 μL 3 μg/mL PD-L1 protein was added and incubated at room temperature for 30 minutes, then washed. The crudely extracted nanobody was added and incubated at room temperature for 1 h followed by washing. Mouse anti-HA primary antibody was added and the mixture was incubated at room temperature for 1 hour followed by washing. Goat anti-mouse alkaline phosphatase-labeled secondary antibody was added and the mixture was incubated at room temperature for 1 hour followed by washing. Alkaline phosphatase colorimetric solution was added for 10 minutes, and the absorption value was detected at 405 nm on a microplate reader. A well with an absorption value that is more than three times the absorption value of the control group is preliminarily determined as a positive well. The positive clones were transferred to a shaking tube for culture in order to extract the plasmid and then subjected to sequencing. Finally, 11 candidate positive clones were obtained.

| binding result | Binder |
| --- | --- |
| binds | B10 |
| binds | B11 |
| binds | B12 |
| binds | B13 |
| binds | B14 |
| binds | B15 |
